The values that follow come from FireProtDB (doi:10.1021/bi500238q).

For the data set the following is noted: Geobacillus kaustophilus (strain HTA426), pH 7, Thermal, CD, Potassium Phosphate Buffer 10 mM, whole UniProt chain shown.

As usually defined, the Tm is the temperature at which the thermal transition is half complete.

B1: Dihydrofolate reductase wild type, Q5KZ26 (protein)
chain: MISHIVAMDENRVIGKDNRLPWHLPADLAYFKRVTMGHAIVMGRKTFEAIGRPLPGRDNVVVTRNRSFRPEGCLVLHSLEEVKQWIASRADEVFIIGGAELFRATMPIVDRLYVTKIFASFPGDTFYPPISDDEWEIVSYTPGGKDEKNPYEHAFIIYERKKAK
Take B1: the Tm (KCl 0.1 M) was found to be 66.9 °C; the melting temperature (Tm) (KCl 0.2 M) amounted to 67.9 °C; the Tm (KCl 0.5 M) is 68.3 °C; the Tm (KCl 1 M) is 70.1 °C; the Tm (KCl 1.5 M) came to 71.7 °C; the melting temperature (Tm) (KCl 2 M) is 73.8 °C. The Tm was 66.8 °C (KF 0.1 M); 67.5 °C (KF 0.2 M); 68.6 °C (KF 0.5 M); 71 °C (KF 1 M); 73.8 °C (KF 1.5 M); 74.6 °C (KF 2 M). Moreover, the Tm was 66.8 °C (NaCl 0.1 M); 67.2 °C (NaCl 0.2 M); 67.6 °C (NaCl 0.5 M); 69.5 °C (NaCl 1 M); 71.5 °C (NaCl 1.5 M); 73.4 °C (NaCl 2 M).
